Assay results: patent US20210032298

T1: Myc-tagged CMTM6 C115S mutant (expressed in HEK293 cells)
T1 chain: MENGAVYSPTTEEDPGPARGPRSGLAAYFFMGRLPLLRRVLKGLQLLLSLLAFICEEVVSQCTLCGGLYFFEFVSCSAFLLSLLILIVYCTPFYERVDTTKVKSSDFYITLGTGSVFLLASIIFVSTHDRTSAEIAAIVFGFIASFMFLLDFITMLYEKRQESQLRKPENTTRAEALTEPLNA

T2: Myc-tagged CMTM6 C90S mutant (expressed in HEK293 cells)
T2 chain: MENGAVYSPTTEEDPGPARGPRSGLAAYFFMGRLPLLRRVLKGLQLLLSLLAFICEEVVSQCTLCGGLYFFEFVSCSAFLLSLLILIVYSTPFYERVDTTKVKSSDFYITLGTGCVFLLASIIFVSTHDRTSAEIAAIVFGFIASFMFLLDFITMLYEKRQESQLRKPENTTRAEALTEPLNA

T3: Myc-tagged CMTM6 C90S+C115S double mutant (expressed in HEK293 cells)
T3 chain: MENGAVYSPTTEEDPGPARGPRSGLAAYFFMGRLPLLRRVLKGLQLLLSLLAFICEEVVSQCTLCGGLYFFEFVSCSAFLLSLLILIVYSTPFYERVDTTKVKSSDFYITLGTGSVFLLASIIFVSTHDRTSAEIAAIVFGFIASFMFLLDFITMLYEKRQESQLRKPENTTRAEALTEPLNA

T4: Myc-tagged CMTM6, wild type (expressed in HEK293 cells)
T4 chain: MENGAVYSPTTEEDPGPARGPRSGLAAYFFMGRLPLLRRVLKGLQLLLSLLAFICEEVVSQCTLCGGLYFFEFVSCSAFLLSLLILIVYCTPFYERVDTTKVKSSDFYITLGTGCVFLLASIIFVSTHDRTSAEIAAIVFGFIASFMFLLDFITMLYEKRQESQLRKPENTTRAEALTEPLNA

T5: Niemann-Pick C1 (NPC1; endogenous, in MDA-MB-231 cells), O15118
T5 chain: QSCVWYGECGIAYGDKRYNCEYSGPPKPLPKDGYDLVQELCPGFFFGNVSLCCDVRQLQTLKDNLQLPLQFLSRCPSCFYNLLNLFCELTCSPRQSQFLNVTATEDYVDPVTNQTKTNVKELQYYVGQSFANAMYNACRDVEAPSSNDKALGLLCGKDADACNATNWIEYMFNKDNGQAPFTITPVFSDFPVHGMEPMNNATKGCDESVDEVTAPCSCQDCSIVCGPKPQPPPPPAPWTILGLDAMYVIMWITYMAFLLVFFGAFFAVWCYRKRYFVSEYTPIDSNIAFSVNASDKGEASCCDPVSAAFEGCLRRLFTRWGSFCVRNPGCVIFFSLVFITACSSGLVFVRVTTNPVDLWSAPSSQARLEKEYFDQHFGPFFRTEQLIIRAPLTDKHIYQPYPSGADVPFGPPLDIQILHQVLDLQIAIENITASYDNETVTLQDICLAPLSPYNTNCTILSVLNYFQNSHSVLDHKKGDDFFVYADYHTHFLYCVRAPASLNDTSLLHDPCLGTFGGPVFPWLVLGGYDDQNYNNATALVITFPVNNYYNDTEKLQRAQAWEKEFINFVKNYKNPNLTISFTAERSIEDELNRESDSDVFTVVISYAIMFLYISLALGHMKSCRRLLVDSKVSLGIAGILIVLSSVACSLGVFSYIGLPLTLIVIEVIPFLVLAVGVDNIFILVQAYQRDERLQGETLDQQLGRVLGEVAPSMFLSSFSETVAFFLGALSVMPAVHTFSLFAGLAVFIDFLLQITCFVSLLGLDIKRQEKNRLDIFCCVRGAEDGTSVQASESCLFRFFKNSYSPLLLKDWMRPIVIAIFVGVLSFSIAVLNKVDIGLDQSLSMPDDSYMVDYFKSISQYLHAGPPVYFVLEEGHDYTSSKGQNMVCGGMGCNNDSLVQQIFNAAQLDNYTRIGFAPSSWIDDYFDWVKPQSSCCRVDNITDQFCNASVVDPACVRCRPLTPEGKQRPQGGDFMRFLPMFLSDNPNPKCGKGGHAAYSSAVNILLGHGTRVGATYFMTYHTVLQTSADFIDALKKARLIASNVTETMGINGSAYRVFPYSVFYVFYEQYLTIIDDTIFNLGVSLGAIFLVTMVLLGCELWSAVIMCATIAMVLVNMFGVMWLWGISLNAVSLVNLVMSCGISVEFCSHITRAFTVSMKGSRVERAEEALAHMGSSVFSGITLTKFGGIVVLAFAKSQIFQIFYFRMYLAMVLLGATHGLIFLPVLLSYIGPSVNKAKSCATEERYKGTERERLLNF

T6: transmembrane protein 192 (TMEM192), Q8IY95
T6 chain: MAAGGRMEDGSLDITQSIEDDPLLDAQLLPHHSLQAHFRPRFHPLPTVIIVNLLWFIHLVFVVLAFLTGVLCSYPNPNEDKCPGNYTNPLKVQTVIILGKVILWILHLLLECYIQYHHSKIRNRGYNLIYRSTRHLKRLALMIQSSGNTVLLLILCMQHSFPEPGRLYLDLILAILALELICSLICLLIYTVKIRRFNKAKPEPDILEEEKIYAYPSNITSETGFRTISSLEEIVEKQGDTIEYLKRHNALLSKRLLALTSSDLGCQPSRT


Columns and labels:
[1] = target: T1, Myc-tagged CMTM6 C115S mutant …
[2] = target: T2, Myc-tagged CMTM6 C90S mutant (expressed …)
[3] = target: T3, Myc-tagged CMTM6 C90S+C115S double …
[4] = target: T4, Myc-tagged CMTM6, wild type (expressed …)
[5] = target: T5, Niemann-Pick C1 (NPC1; endogenous, in …)
[6] = target: T6, transmembrane protein 192 (TMEM192), …

Protein	incorporation of 3[H]-palmitate into immunoprecipitated Myc-CMTM6 (HEK293 over-expression) [1]	incorporation of 3[H]-palmitate into immunoprecipitated Myc-CMTM6 (HEK293 over-expression) [2]	incorporation of 3[H]-palmitate into immunoprecipitated Myc-CMTM6 (HEK293 over-expression) [3]	incorporation of 3[H]-palmitate into immunoprecipitated Myc-CMTM6 (HEK293 over-expression) [4]	palmitoylation of the substrate after DHHC3 ablation [5]	palmitoylation of the substrate after DHHC3 ablation [6]
FLAG-tagged DHHC3 (over-expressed in HEK293 cells) (protein) MMLIPTHHFRNIERKPEYLQPEKCVPPPYPGPVGTMWFIRDGCGIACAIVTWFLVLYAEFVVLFVMLIPSRDYVYSIINGIVFNLLAFLALASHCRAMLTDPGAVPKGNATKEFIESLQLKPGQVVYKCPKCCSIKPDRAHHCSVCKRCIRKMDHHCPWVNNCVGENNQKYFVLFTMYIALISLHALIMVGFHFLHCFEEDWTKCSSFSPPTTVILLILLCFEGLLFLIFTSVMFGTQVHSICTDETGIEQLKKEERRWAKKTKWMNMKAVFGHPFSLGWASPFATPDQGKADPYQYVV	a C115 mutation did not diminish incorporation of 3[H]-palmitate	mutation of C90 (C→S) caused palmitoylation to be diminished by ˜50%	both mutations together (C90S+C115S) did not diminish palmitoylation (FIG. 23A, lane 6) more than C90S alone	CMTM6 incorporates 3[H]-palmitate when DHHC3 is present (FIG. 23A, lane 3), but not when DHHC3 is absent (FIG. 23A, lane 2)		
DHHC3 (protein acyltransferase; endogenous, in MDA-MB-231 cells) (protein) MMLIPTHHFRNIERKPEYLQPEKCVPPPYPGPVGTMWFIRDGCGIACAIVTWFLVLYAEFVVLFVMLIPSRDYVYSIINGIVFNLLAFLALASHCRAMLTDPGAVPKGNATKEFIESLQLKPGQVVYKCPKCCSIKPDRAHHCSVCKRCIRKMDHHCPWVNNCVGENNQKYFVLFTMYIALISLHALIMVGFHFLHCFEEDWTKCSSFSPPTTVILLILLCFEGLLFLIFTSVMFGTQVHSICTDETGIEQLKKEERRWAKKTKWMNMKAVFGHPFSLGWASPFATPDQGKADPYQYVV					4/4 putative DHHC3 substrates (ERGIC3, CMTM6, NPC1, transmembrane protein 192 (TMEM192)) lose substantial palmitoylation when DHHC3 is ablated	4/4 putative DHHC3 substrates (ERGIC3, CMTM6, NPC1, transmembrane protein 192 (TMEM192)) lose substantial palmitoylation when DHHC3 is ablated
